Reference: paper PMC8641752

Legend:
Experiment in all cases: co-IP; substrate (Hmg2-GFP, Ste6*-GFP, CPY*-GFP with GFP-Trap; Pdr5*-Myc with Myc Trap) precipitated from yeast microsomes solubilised in Tween IP buffer (500 mM NaCl, 50 mM Tris pH 7.5, 10 mM EDTA, 1.5% Tween-20), overnight 4°C; blots with anti-HA, anti-Cdc48
[1] = target: Pdr5*-Myc (S. cerevisiae) (UniProt P33302)
Hmg2-GFP (S. cerevisiae) = Hmg2-GFP (S. cerevisiae) (UniProt P12684)
[2] = target: Ste6*-GFP (S. cerevisiae) (UniProt P12866)
Sequence of UniProt P12866 (P12866 whole entry): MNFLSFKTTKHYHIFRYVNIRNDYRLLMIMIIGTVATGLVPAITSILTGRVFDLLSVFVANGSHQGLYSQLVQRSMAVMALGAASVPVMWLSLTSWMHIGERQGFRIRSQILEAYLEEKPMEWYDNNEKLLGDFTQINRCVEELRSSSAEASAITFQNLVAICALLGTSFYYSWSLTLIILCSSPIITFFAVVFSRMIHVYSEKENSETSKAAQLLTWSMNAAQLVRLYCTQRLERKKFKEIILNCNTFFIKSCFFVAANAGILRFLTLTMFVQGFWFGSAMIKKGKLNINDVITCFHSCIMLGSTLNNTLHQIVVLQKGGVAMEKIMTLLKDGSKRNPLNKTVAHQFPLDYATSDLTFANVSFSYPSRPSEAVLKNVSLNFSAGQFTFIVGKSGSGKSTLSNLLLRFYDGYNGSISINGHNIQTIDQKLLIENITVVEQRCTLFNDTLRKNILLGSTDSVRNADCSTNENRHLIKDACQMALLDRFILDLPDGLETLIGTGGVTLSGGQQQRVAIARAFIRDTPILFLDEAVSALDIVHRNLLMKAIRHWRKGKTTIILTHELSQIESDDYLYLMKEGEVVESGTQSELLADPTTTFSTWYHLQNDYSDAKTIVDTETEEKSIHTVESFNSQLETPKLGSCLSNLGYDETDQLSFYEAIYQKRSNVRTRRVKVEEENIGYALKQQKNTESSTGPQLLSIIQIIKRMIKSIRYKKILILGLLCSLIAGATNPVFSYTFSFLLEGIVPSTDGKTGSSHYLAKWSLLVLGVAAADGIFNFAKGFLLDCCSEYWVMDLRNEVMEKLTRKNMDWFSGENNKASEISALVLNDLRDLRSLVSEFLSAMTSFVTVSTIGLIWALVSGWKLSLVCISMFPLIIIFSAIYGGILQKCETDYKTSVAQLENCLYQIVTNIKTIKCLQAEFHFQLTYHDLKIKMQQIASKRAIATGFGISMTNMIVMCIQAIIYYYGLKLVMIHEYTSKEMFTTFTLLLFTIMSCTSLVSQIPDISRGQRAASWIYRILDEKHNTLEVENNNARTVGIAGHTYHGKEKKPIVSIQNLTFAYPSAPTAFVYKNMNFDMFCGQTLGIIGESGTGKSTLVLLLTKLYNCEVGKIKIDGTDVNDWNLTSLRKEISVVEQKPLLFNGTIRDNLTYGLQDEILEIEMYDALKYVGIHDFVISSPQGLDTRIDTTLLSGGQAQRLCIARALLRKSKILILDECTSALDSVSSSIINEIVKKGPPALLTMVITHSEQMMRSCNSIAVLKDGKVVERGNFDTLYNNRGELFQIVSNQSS

Sequence of Dfm1-5Ashp (Q12743 whole entry): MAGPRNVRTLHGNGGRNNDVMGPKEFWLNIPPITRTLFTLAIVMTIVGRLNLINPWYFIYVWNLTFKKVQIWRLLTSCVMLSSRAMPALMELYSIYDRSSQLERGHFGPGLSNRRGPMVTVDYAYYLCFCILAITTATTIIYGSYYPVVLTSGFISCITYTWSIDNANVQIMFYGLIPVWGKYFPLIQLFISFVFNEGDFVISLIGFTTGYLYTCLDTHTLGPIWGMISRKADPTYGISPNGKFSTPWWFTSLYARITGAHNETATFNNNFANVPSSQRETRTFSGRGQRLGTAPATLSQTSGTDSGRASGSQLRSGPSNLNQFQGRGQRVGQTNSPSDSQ
Sequence of UniProt P33302 (P33302 whole entry): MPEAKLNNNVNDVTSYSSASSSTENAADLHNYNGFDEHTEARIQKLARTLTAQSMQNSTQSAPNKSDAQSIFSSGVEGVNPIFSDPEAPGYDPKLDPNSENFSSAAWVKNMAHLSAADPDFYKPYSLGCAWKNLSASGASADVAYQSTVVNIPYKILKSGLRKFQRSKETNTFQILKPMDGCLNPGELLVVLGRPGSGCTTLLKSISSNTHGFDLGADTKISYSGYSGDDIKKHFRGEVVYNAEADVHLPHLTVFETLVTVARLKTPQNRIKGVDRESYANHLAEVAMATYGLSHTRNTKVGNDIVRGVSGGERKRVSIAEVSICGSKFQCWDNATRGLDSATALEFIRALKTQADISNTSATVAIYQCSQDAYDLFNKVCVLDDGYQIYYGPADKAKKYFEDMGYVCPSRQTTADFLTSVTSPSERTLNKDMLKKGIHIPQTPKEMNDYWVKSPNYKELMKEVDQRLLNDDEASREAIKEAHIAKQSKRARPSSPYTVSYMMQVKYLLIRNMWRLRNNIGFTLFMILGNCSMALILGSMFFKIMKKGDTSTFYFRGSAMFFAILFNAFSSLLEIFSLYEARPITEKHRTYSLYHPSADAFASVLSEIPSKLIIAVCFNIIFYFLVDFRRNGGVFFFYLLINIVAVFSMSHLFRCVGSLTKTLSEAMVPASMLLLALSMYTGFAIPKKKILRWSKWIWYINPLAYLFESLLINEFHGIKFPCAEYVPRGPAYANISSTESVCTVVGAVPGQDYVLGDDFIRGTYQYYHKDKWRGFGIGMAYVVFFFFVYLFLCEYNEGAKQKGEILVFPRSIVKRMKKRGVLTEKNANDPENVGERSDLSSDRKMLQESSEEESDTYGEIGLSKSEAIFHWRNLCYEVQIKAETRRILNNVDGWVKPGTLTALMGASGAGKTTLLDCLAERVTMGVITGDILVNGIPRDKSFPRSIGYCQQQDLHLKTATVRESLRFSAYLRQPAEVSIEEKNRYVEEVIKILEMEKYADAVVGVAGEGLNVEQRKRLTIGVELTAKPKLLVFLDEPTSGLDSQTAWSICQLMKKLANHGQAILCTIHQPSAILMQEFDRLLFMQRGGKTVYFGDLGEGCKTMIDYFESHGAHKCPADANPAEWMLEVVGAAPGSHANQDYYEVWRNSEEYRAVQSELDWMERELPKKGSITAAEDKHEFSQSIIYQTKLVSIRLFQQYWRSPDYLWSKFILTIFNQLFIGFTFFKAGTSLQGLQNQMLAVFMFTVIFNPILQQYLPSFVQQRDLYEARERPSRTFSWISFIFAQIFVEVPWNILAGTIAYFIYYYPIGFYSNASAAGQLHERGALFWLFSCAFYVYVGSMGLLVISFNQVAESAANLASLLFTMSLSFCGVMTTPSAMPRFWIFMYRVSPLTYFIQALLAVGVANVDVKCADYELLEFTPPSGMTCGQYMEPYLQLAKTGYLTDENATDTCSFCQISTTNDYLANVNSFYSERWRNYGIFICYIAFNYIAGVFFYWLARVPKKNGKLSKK
Sequence of UniProt P12684 (P12684 whole entry): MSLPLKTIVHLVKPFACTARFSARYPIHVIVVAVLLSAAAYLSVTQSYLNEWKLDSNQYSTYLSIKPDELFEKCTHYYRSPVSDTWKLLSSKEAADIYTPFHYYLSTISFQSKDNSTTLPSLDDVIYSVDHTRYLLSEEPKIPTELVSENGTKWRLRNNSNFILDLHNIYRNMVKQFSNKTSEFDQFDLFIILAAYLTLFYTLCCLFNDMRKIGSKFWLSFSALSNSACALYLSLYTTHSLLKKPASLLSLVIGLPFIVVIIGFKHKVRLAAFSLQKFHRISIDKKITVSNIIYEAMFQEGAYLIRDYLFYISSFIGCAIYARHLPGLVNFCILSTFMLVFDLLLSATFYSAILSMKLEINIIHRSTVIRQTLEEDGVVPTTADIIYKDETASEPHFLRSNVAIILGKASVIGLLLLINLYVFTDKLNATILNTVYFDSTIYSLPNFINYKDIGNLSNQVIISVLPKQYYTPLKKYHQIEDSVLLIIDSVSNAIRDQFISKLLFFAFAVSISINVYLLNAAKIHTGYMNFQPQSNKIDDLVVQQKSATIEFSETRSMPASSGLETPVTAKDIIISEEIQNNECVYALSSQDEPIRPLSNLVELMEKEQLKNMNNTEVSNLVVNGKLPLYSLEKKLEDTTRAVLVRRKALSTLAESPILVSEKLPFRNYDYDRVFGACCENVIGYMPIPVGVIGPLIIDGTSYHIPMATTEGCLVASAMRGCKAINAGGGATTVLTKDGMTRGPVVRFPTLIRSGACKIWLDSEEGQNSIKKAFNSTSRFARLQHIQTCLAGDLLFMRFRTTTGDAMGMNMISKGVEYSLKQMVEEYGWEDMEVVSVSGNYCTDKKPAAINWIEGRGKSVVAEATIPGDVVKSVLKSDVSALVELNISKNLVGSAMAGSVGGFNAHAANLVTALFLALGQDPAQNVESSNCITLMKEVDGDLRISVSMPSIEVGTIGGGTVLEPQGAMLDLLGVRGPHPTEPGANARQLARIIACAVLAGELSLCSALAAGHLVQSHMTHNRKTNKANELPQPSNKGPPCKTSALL

- fraction of Dfm1-5Ashp bound compared with wild-type Dfm1 [1]: < 5%
- fraction of Dfm1-5Ashp bound compared with wild-type Dfm1 (Hmg2-GFP (S. cerevisiae)): < 5%
- fraction of Dfm1-5Ashp bound compared with wild-type Dfm1 [2]: < 5%
Substance: Dfm1-5Ashp (from UniProt Q12743 1-341) (natural protein)
